Measured values taken from US20190338048A1.
Several values for one entry are separate records, joined by “and”; a condition that tells them apart may be missing. Equal values may be shown once. Read-outs that look alike come from different tables or passages of the source. Blank lines part the entries; values can stand above or below the substance they belong to.

Legend:
[1] = molecular target: CR8071 lambda light chain L1 with E124R (SMCA design 2826); assay: SMCA LC-MS
[2] = molecular target: CR8071 lambda light chain L1 with E124R (SMCA design 2826); assay: SMCA: four chains co-expressed, protein A, LC-MS
[3] = molecular target: CR8071 lambda light chain L1 with Q38E (SMCA design 34); assay: SMCA LC-MS
[4] = molecular target: CR8071 lambda light chain L1 with Q38E (SMCA design 34); assay: SMCA: four chains co-expressed, protein A, LC-MS
[5] = molecular target: Design 2994 L1: CR8071 lambda light chain E124Q_T131K; assay: SMCA, LC-MS
[6] = molecular target: Design 2994 L1: CR8071 lambda light chain E124Q_T131K; assay: SMCA: H1, L1, H2, L2 co-expressed in CHO-3E7, protein A, LC-MS
[7] = molecular target: Design 2994 L2: SGN-CD19a kappa light chain Q124E_V133D; assay: SMCA, LC-MS
[8] = molecular target: Design 2994 L2: SGN-CD19a kappa light chain Q124E_V133D; assay: SMCA: H1, L1, H2, L2 co-expressed in CHO-3E7, protein A, LC-MS
[9] = molecular target: Design 3947 L2: SGN-CD19a kappa light chain S131K_S176K; assay: SMCA: H1, L1, H2, L2 co-expressed, protein A, LC-MS
[10] = molecular target: Design 3947 L2: SGN-CD19a kappa light chain S131K_S176K; assay: as above; remark: listed apart in the source
[11] = molecular target: Design 3947 L2: SGN-CD19a kappa light chain S131K_S176K; assay: as above; remark: listed apart in the source
[12] = molecular target: Design 3951 L2: SGN-CD19a kappa light chain S121K_S131K_S176K; assay: as above
[13] = molecular target: Design 3951 L2: SGN-CD19a kappa light chain S121K_S131K_S176K; assay: as above; remark: listed apart in the source
[14] = molecular target: Design 3951 L2: SGN-CD19a kappa light chain S121K_S131K_S176K; assay: as above; remark: listed apart in the source
[15] = molecular target: Design 3954 L2: SGN-CD19a kappa light chain S121K_S176E_T178E; assay: as above
[16] = molecular target: Design 3954 L2: SGN-CD19a kappa light chain S121K_S176E_T178E; assay: as above; remark: listed apart in the source
[17] = molecular target: Design 3954 L2: SGN-CD19a kappa light chain S121K_S176E_T178E; assay: as above; remark: listed apart in the source
[18] = molecular target: Design 3997 L1: CR8071 lambda light chain S122D_E124Q_T131R; assay: SMCA, LC-MS
[19] = molecular target: Design 3997 L1: CR8071 lambda light chain S122D_E124Q_T131R; assay: SMCA: H1, L1, H2, L2 co-expressed in CHO-3E7, protein A, LC-MS
[20] = molecular target: Design 3997 L2: SGN-CD19a kappa light chain S121K_V133I_S176D_T178E; assay: SMCA, LC-MS
[21] = molecular target: Design 3997 L2: SGN-CD19a kappa light chain S121K_V133I_S176D_T178E; assay: SMCA: H1, L1, H2, L2 co-expressed in CHO-3E7, protein A, LC-MS
[22] = molecular target: Design 4008 L2: SGN-CD19a kappa light chain Q124R_L135W_T178R; assay: SMCA, LC-MS
[23] = molecular target: Design 4010 L2: SGN-CD19a kappa light chain S131R_V133G_L135W_S176R; assay: SMCA, LC-MS
[24] = molecular target: Design 4040 L1: CR8071 lambda light chain K129T_S180E; assay: SMCA, LC-MS
[25] = molecular target: Design 4040 L1: CR8071 lambda light chain K129T_S180E; assay: SMCA: H1, L1, H2, L2 co-expressed in CHO-3E7, protein A, LC-MS
[26] = molecular target: Design 4040 L2: SGN-CD19a kappa light chain P44F_Q124K_T178R; assay: SMCA, LC-MS
[27] = molecular target: Design 4040 L2: SGN-CD19a kappa light chain P44F_Q124K_T178R; assay: SMCA, LC-MS; remark: listed apart in the source
[28] = molecular target: Design 4040 L2: SGN-CD19a kappa light chain P44F_Q124K_T178R; assay: SMCA: H1, L1, H2, L2 co-expressed in CHO-3E7, protein A, LC-MS
[29] = molecular target: Design 4320 L1: CR8071 lambda light chain T116F_K129T_V133D_S176F; assay: SMCA, LC-MS
[30] = molecular target: Design 4320 L1: CR8071 lambda light chain T116F_K129T_V133D_S176F; assay: SMCA: H1, L1, H2, L2 co-expressed in CHO-3E7, protein A, LC-MS
[31] = molecular target: Design 4320 L2: SGN-CD19a kappa light chain Q124K_L135A_T178R; assay: SMCA, LC-MS
[32] = molecular target: Designs 4008 and 4010 L1: CR8071 lambda light chain K129T_V133D; assay: SMCA, LC-MS
[33] = molecular target: Designs 4008 and 4010 L1: CR8071 lambda light chain K129T_V133D; assay: SMCA: H1, L1, H2, L2 co-expressed in CHO-3E7, protein A, LC-MS
[34] = molecular target: SGN-CD19a kappa light chain L2 with V133G_S176D (SMCA design 2188); assay: SMCA LC-MS
[35] = molecular target: SGN-CD19a kappa light chain L2 with V133G_S176D (SMCA design 2188); assay: SMCA: four chains co-expressed, protein A, LC-MS
[36] = molecular target: SGN-CD19a kappa light chain L2 with Q124E_Q160E_T180E (SMCA design 2826); assay: SMCA LC-MS
[37] = molecular target: SGN-CD19a kappa light chain L2 with Q124E_Q160E_T180E (SMCA design 2826); assay: SMCA LC-MS; remark: listed apart in the source
[38] = molecular target: SGN-CD19a kappa light chain L2 with Q124E_Q160E_T180E (SMCA design 2826); assay: SMCA: four chains co-expressed, protein A, LC-MS
[39] = molecular target: SGN-CD19a kappa light chain L2 with Q124E_Q160E_T180E (SMCA design 2826); assay: SMCA: four chains co-expressed, protein A, LC-MS; remark: listed apart in the source
[40] = molecular target: SGN-CD19a kappa light chain L2 S121K_Q124R_T178R (design 3967, Systems B and C); assay: SMCA: H1, L1, H2, L2 co-expressed, protein A, LC-MS
[41] = molecular target: SGN-CD19a kappa light chain L2 S121K_Q124R_T178R (design 3967, Systems B and C); assay: as above; remark: listed apart in the source
[42] = molecular target: SGN-CD19a kappa light chain L2 S121K_Q124R_T178R (design 3967, Systems B and C); assay: as above; remark: listed apart in the source
[43] = molecular target: SGN-CD19a kappa light chain Q124K_V133A_T178R (L2 of design 3109, systems B and C); assay: SMCA LC-MS
[44] = molecular target: SGN-CD19a kappa light chain Q124K_V133A_T178R (L2 of design 3109, systems B and C); assay: SMCA LC-MS; remark: listed apart in the source
[45] = molecular target: SGN-CD19a kappa light chain Q124K_V133A_T178R (L2 of design 3109, systems B and C); assay: SMCA LC-MS; remark: listed apart in the source

Change in % H1L1 Pairing with respect to wild type [1]: -40.3% | % H1L1 Pairing [2]: 27.8%
Substance: CR8071 full-length heavy chain H1 with L143E_K145T (SMCA design 2826)

Change in % H1L1 Pairing with respect to wild type [3]: 24.5% | % H1L1 Pairing [4]: 92.6%
Substance: CR8071 full-length heavy chain H1 with Q39R (SMCA design 34)

Change in % H1L1 Pairing with respect to wild type [5]: -22.1% | % H1L1 Pairing [6]: 26.3%
Substance: Design 2994 H1: CR8071 heavy chain L143E_K145T_Q179E

Change in % H2L2 Pairing with respect to wild type [7]: 45% and 20.1% | % H2L2 Pairing [8]: 99.2% and 99.7%
Substance: Design 2994 H2: SGN-CD19a heavy chain L143K

% H2L2 Pairing [9]: 70.3% | % H2L2 Pairing [10]: 94.5% | Change in % H2L2 Pairing with respect to wild type [10]: 23.2% | Change in % H2L2 Pairing with respect to wild type [11]: 16.1%
Substance: Design 3947 H2: SGN-CD19a heavy chain K145T_S186E

% H2L2 Pairing [12]: 77.5% | % H2L2 Pairing [13]: 97.1% | Change in % H2L2 Pairing with respect to wild type [13]: 25.8% | Change in % H2L2 Pairing with respect to wild type [14]: 23.3%
Substance: Design 3951 H2: SGN-CD19a heavy chain K145T_S186E_K228D

% H2L2 Pairing [15]: 61.8% | % H2L2 Pairing [16]: 98.7% | Change in % H2L2 Pairing with respect to wild type [16]: 19.1% | Change in % H2L2 Pairing with respect to wild type [17]: 7.6%
Substance: Design 3954 H2: SGN-CD19a heavy chain S188K_K228D

Change in % H1L1 Pairing with respect to wild type [18]: 27.9% | % H1L1 Pairing [19]: 96%
Substance: Design 3997 H1: CR8071 heavy chain A125R_L143E_K145T_Q179E

Change in % H2L2 Pairing with respect to wild type [20]: 28.6% | % H2L2 Pairing [21]: 99.9%
Substance: Design 3997 H2: SGN-CD19a heavy chain S188K_K228D

Change in % H2L2 Pairing with respect to wild type [22]: 33.3% and 38.4%
Substance: Design 4008 H2: SGN-CD19a heavy chain L143E_K145T_Q179E

Change in % H2L2 Pairing with respect to wild type [23]: 33.9% and 38.7%
Substance: Design 4010 H2: SGN-CD19a heavy chain L124E_K145T_Q179E

Change in % H1L1 Pairing with respect to wild type [24]: 30.6% | % H1L1 Pairing [25]: 98.7%
Substance: Design 4040 H1: CR8071 heavy chain S186R

Change in % H2L2 Pairing with respect to wild type [26]: 27.3% | Change in % H2L2 Pairing with respect to wild type [27]: 21.6% | % H2L2 Pairing [28]: 75.8% and 98.6%
Substance: Design 4040 H2: SGN-CD19a heavy chain L45P_L143E_K145T_Q179E

Change in % H1L1 Pairing with respect to wild type [29]: 14.3% | % H1L1 Pairing [30]: 96.6%
Substance: Design 4320 H1: CR8071 heavy chain L143K_F174G

Change in % H2L2 Pairing with respect to wild type [31]: 17.9% and 21.5%
Substance: Design 4320 H2: SGN-CD19a heavy chain L143E_K145T_Q179E_V190F

Change in % H1L1 Pairing with respect to wild type [32]: 17.3% and 17% | % H1L1 Pairing [33]: 99.6% and 99.3%
Substance: Designs 4008 and 4010 H1: CR8071 heavy chain A139W_L143K

Change in % H2L2 Pairing with respect to wild type [34]: 38.7% | % H2L2 Pairing [35]: 92.9%
Substance: SGN-CD19a full-length heavy chain H2 with L124R (SMCA design 2188)

Change in % H2L2 Pairing with respect to wild type [36]: 35.5% | Change in % H2L2 Pairing with respect to wild type [37]: 26.7% | % H2L2 Pairing [38]: 89.7% | % H2L2 Pairing [39]: 98%
Substance: SGN-CD19a full-length heavy chain H2 with Q179K (SMCA design 2826)

% H2L2 Pairing [40]: 100% | Change in % H2L2 Pairing with respect to wild type [40]: 28.7% | % H2L2 Pairing [41]: 98.6% | Change in % H2L2 Pairing with respect to wild type [42]: 44.4%
Substance: SGN-CD19a heavy chain H2 L143E_K145T_Q179E_K228D (design 3967, Systems B and C)

% H2L2 Pairing [43]: 97.1% | Change in % H2L2 Pairing with respect to wild type [43]: 42.9% | % H2L2 Pairing [44]: 99.6% | Change in % H2L2 Pairing with respect to wild type [45]: 28.3%
Substance: SGN-CD19a heavy chain L124W_L143E_K145T_Q179E (H2 of design 3109, systems B and C)
